From patent publication US20220259593A1, “CONTROL OF MAMMALIAN GENE DOSAGE USING CRISPR” (The Regents of the University of California, priority 2019, published 2022)
Numbering of substitutions follows the chain as printed.

B1: cr591 (nucleic acid)
guide: GTTTAAGAGCTAAGCTGGAAACAGCATAGCAAGTTTAAATAAGGCTAGTCCGTTGTCTACTTGAAAAAGTGGCACCGAGTCGGTGCT
modifications: listed as DNA, chemistry not fully specified
B2: cr125 (nucleic acid)
guide: B1 guide with G33T, G55A, T58A, A65T
modifications: listed as DNA, chemistry not fully specified
B3: cr696 (nucleic acid)
guide: B1 guide with A31G, A47C, G55A, T58C
modifications: listed as DNA, chemistry not fully specified
B4: cr046 (nucleic acid)
guide: B1 guide with T2G, G7C, G55A, T58A
modifications: listed as DNA, chemistry not fully specified
B5: cr027 (nucleic acid)
guide: B1 guide with T3C, G7A, G55A, T58A
modifications: listed as DNA, chemistry not fully specified
B6: cr207 (nucleic acid)
guide: B1 guide with G55A, T58A, C81G
modifications: listed as DNA, chemistry not fully specified
B7: cr262 (nucleic acid)
guide: B1 guide with T34C, G55A, T58A, A59T, T70A
modifications: listed as DNA, chemistry not fully specified
B8: cr076 (nucleic acid)
guide: B1 guide with G1A, T2A, G55A, T58A
modifications: listed as DNA, chemistry not fully specified
B9: cr374 (nucleic acid)
guide: B1 guide with C45A, G55A, T58A
modifications: listed as DNA, chemistry not fully specified
B10: cr277 (nucleic acid)
guide: B1 guide with G43A, C51T, G55A, T58A, T62A, A67T, C76A, G82T
modifications: listed as DNA, chemistry not fully specified
B11: cr073 (nucleic acid)
guide: B1 guide with A5T, A8C, G55A, T58A
modifications: listed as DNA, chemistry not fully specified
B12: cr344 (nucleic acid)
guide: B1 guide with G52A, G55A, T58A, A66T
modifications: listed as DNA, chemistry not fully specified
B13: cr654 (nucleic acid)
guide: B1 guide with T34A, G55A, T58A, A65T
modifications: listed as DNA, chemistry not fully specified
B14: cr246 (nucleic acid)
guide: B1 guide with T40A, A47G, G55A, T58A
modifications: listed as DNA, chemistry not fully specified
B15: cr892 (nucleic acid)
guide: B1 guide with G55A, T58A, T61G, A68C, A74G, C75A, G83T, T84C
modifications: listed as DNA, chemistry not fully specified
B16: cr198 (nucleic acid)
guide: B1 guide with G33T, G55A, T58A, G79A
modifications: listed as DNA, chemistry not fully specified
B17: cr403 (nucleic acid)
guide: B1 guide with T34C, G55A, T58A, C76A, G82T
modifications: listed as DNA, chemistry not fully specified
B18: cr532 (nucleic acid)
guide: B1 guide with G55A, T58A, T61G, A68C, G72A, A74T, T84A, C86T
modifications: listed as DNA, chemistry not fully specified
B19: cr982 (nucleic acid)
guide: B1 guide with T34C, G55A, T58A, C75A, G83T
modifications: listed as DNA, chemistry not fully specified
B20: cr154 (nucleic acid)
guide: B1 guide with A28C, G52A, G55A, T58A
modifications: listed as DNA, chemistry not fully specified
B21: cr417 (nucleic acid)
guide: B1 guide with G33T, G55A, T58A, A66G
modifications: listed as DNA, chemistry not fully specified
B22: cr237 (nucleic acid)
guide: B1 guide with C45A, G48T, G55A, T58A, T61G, A68C, G77C, C81G
modifications: listed as DNA, chemistry not fully specified
B23: cr077 (nucleic acid)
guide: B1 guide with T2A, A8T, G55A, T58A
modifications: listed as DNA, chemistry not fully specified
B24: cr662 (nucleic acid)
guide: B1 guide with T35A, G55A, T58A
modifications: listed as DNA, chemistry not fully specified
B25: cr487 (nucleic acid)
guide: B1 guide with A32C, G55A, T58A
modifications: listed as DNA, chemistry not fully specified
B26: cr972 (nucleic acid)
guide: B1 guide with G44T, C45G, G48C, C50A, G55A, T58A, T61C, A68G
modifications: listed as DNA, chemistry not fully specified
B27: cr720 (nucleic acid)
guide: B1 guide with T34C, C45T, G48A, G55A, T58A
modifications: listed as DNA, chemistry not fully specified
B28: cr331 (nucleic acid)
guide: B1 guide with T34C, G55A, T58A, C75T, G83A
modifications: listed as DNA, chemistry not fully specified
B29: cr158 (nucleic acid)
guide: B1 guide with G43A, C45T, G48A, C51T, G55A, T58A, T62C, A67G
modifications: listed as DNA, chemistry not fully specified
B30: cr870 (nucleic acid)
guide: B1 guide with T27A, G55A, T58A
modifications: listed as DNA, chemistry not fully specified
B31: cr992 (nucleic acid)
guide: B1 guide with A28T, G52A, G55A, T58A
modifications: listed as DNA, chemistry not fully specified
B32: cr379 (nucleic acid)
guide: B1 guide with A26C, G55A, T58A
modifications: listed as DNA, chemistry not fully specified
B33: cr110 (nucleic acid)
guide: B1 guide with C45A, G48T, G55A, T58A, C75T, C76T, G82A, G83A
modifications: listed as DNA, chemistry not fully specified
B34: cr308 (nucleic acid)
guide: B1 guide with G43A, C51T, G55A, T58A, A59T, T70A, A74T, T84A
modifications: listed as DNA, chemistry not fully specified
B35: cr907 (nucleic acid)
guide: B1 guide with G52A, G55A, T58A, A64T, G79T
modifications: listed as DNA, chemistry not fully specified
B36: cr965 (nucleic acid)
guide: B1 guide with C45G, G48C, G55A, T58A, A74C, C75T, G83A, T84G
modifications: listed as DNA, chemistry not fully specified
B37: cr792 (nucleic acid)
guide: B1 guide with T34C, G55A, T58A, G72C, C86G
modifications: listed as DNA, chemistry not fully specified
B38: cr217 (nucleic acid)
guide: B1 guide with G33T, G55A, T58A, A65C
modifications: listed as DNA, chemistry not fully specified
B39: cr220 (nucleic acid)
guide: B1 guide with A41C, G52A, T54A, G55A, T58A
modifications: listed as DNA, chemistry not fully specified
B40: cr480 (nucleic acid)
guide: B1 guide with G55A, T58A, C60A, G69T, G72A, G77T, C81A, C86T
modifications: listed as DNA, chemistry not fully specified
B41: cr025 (nucleic acid)
guide: B1 guide with G1C, G7A, G55A, T58A
modifications: listed as DNA, chemistry not fully specified

Test system: K562 CRISPRi cells
Test: Constant region variant library pooled growth screen, K562
Assay type: cell-based, human
Conditions: sgRNA constant region variants
Outline: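 Relative activity expresses each targeting sequence:constant region pair's phenotype over that of the unmodified constant region. Pooled growth screen ran in K562 CRISPRi cells in duplicate spinner-flask replicates, with puromycin selection and 4–8 days' growth at >2000× coverage; library paired variants with 36 targeting sequences.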

[1] = activity relative to the unmodified constant region cr995
[2] = activity relative to the original, un-modified constant region cr995

Molecule | Mean relative activity [1] | Mean relative activity [2]
B1 | 0.2933 | 
B2 | 0.2852 | 
B3 | 0.2553 | 
B4 | 0.2592 | 
B5 | 0.2878 | 
B6 | 0.2154 | 
B7 | 0.2329 | 
B8 | 0.2741 | 
B9 | 0.2686 | 
B10 | 0.2732 | 
B11 | 0.265 | 
B12 | 0.2836 | 
B13 | 0.2692 | 
B14 | 0.2779 | 
B15 |  | 1.041
B16 | 0.236 | 
B17 | 0.2381 | 
B18 |  | 1.093
B19 | 0.2842 | 
B20 | 0.2827 | 
B21 | 0.2821 | 

Molecule | Mean relative activity [1] | Mean relative activity [2]
B22 | 0.2843 | 
B23 | 0.2538 | 
B24 | 0.2491 | 
B25 |  | 1.039
B26 | 0.2767 | 
B27 | 0.2481 | 
B28 | 0.2828 | 
B29 | 0.2403 | 
B30 |  | 1.04
B31 | 0.2785 | 
B32 |  | 1.041
B33 | 0.2547 | 
B34 | 0.2249 | 
B35 | 0.2821 | 
B36 | 0.2572 | 
B37 | 0.242 | 
B38 | 0.2802 | 
B39 | 0.2229 | 
B40 | 0.2543 | 
B41 | 0.2396 | 
